Test results from the DeepSol protein solubility set.

Experiment: soluble on expression in E. coli; label from the status in PepcDB or PDB records

Sequence | soluble on expression in E. coli
MIIRDENYFTDKYELTRTHSEVLEAVKVVKPGKTLDLGCGNGRNSLYLAANGYDVDAWDKNAMSIANVERIKSIENLDNLHTRVVDLNNLTFDRQYDFILSTVVLMFLEAKTIPGLIANMQRCTKPGGYNLIVAAMDTADYPCTVGFPFAFKEGELRRYYEGWERVKYNEDVGELHRTDANGNRIKLRFATMLARKKLEHHHHHH | not soluble
SEACVSVTSSILSSMDPTVDPCHDFFSYACGGWIKANPVPDGHSRWGTFSNLWEHNQAIIKHLLENSTASVSEAERKAQVYYRACMNETRIEELRAKPLMELIERLGGWNITGPWAKDNFQDTLQVVTAHYRTSPFFSVYVSADSKNSNSNVIQVDQSGLGLPSRDYYLNKTENEKVLTGYLNYMVQLGKLLGGGDEEAIRPQMQQILDFETALANITIPQEKRRDEELIYHKVTAAELQTLAPAINWLPFLNTIFYPVEINESEPIVVYDKEYLEQISTLINTTDRCLLNNYMIWNLVRKTSSFLDQRFQDADEKFMEVMYGTKKTSLPRWKFCVSDTENNLGFALGPMFVKATFAEDSKSIATEIILEIKKAFEESLSTLKWMDEETRKSAKEKADAIYNMIGYPNFIMDPKELDKVFNDYTAVPDLYFENAMRFFNFSWRVTADQLRKAPNRDQWSMTPPMVNAYYSPTKNEIVFPAGILQAPFYTRSSPKALNFGGIGVVVGHELTHAFDDQGREYDKDGNLRPWWKNSSVEAFKRQTECMVEQYSNYSVNGEPVNGRHTLGENIADNGGLKAAYRAYQNWVKKNGAEHSLPTLGLTNNQLFFLGFAQVWCSVRTPESSHEGLITDPHSPSRFRVIGSLSNSKEFSEHFRCPPGSPMNPPHKCEVW | soluble
GPGSMRAVVFSDVASAELREHIRAIASTSYAEVVYVDVSESAEADLATAWHTRYGGASHSPPAARDELDDLKNTFVCYLTEQKTIEDSDVVYAVFVAEVHTLVLTPSVTLTPLMHATADGSVSARKAAIESFFSVAPSSSSAEVIVVEGGDGAGKETQTGLLVRRVHAAGDEVHALDFPNEKGLYGGLVRAVLSGKKGPISELNPQLFSFLYSLNRFGCARQLHFWLRRGSSVVLDRYYTANFGHQASKLPPEEREAFISDLEFMEVEWLGLPRATYVLYLDLPPAVALEAMRQDATRKQLDIHETAGSDYKERVRQTYRWCCEHLPGWHHIECFSDDGRRLTREEVHASITSHLRDAGSRAIGAPS | not soluble
AIAARRNYQVERNKLEEKDPTWLMQKGQIQPLVSSLVVLNVEGERILARYTAKELFPTFDVEKKFEADLLKKSQTIPDLEERVFEHGQHIVVCRASEDLLFFVTSRIYENEVILSEVLTCWVDSLVKVLKNLPLNELNLLQHYEVLLLLVDELVDQEGVIMETDANELSSRTEFAMYSTDPRDLIPELTEQGFSHALQTAKQHLARTILK | soluble
MGSKGVYQYHWQSHNVKHSGVDDMVLLSKITENSIVENLKKRYMDDYIFTYIGSVLISVNPFKQMPYFGEKEIEMYQGAAQYENPPHIYALADNMYRNMIIDRENQCVIISGESGAGKTVAAKYIMSYISRVSGGGTKVQHVKDIILQSNPLLEAFGNAKTVRNNNSSRFGKYFEIQFSPGGEPDGGKISNFLLEKSRVVMRNPGERSFHIFYQLIEGASAEQKHSLGITSMDYYYYLSLSGSYKVDDIDDRREFQETLHAMNVIGIFAEEQTLVLQIVAGILHLGNISFKEVGNYAAVESEEFLAFPAYLLGINQDRLKEKLTSRQMDSKWGGKSESIHVTLNVEQACYTRDALAKALHARVFDFLVDSINKAMEKDHEEYNIGVLDIYGFEIFQKNGFEQFCINFVNEKLQQIFIELTLKAEQEEYVQEGIRWTPIEYFNNKIVCDLIENKVNPPGIMSILDDVCATMHAVGEGADQTLLQKLQMQIGSHEHFNSWNQGFIIHHYAGKVSYDMDGFCERNRDVLFMDLIELMQSSELPFIKSLFPENLQADKKGRPTTAGSKIKKQANDLVSTLMKCTPHYIRCIKPNETKKPRDWEESRVKHQVEYLGLKENIRVRRAGYAYRRIFQKFLQRYAILTKATWPSWQGEEKQGVLHLLQSVNMDSDQFQLGRSKVFIKAPESLFLLEEMRERKYDGYARVIQKSWRKFVARKKYVQMREEASDLLLNKKERRRNSINRNFIGDYIGMEEHPELQQFVGKREKIDFADTVTKYDRRFKGVKRDLLLTPKCLYLIGREKVKQGPDKGLVKEVLKRKIEIERILSVSLSTMQDDIFILHEQEYDSLLESVFKTEFLSLLAKRYEEKTQKQLPLKFSNTLELKLKKENWGPWSAGGSRQVQFHQGFGDLAVLKPSNKVLQVSIGPGLPKNSRPTRRNTTQNTGYSSGTQNANYPVRAAPPPPGYHQNGVIRNQYVPYPHAPGSQRSNQKSLYTSMARPPLPRQQSTSSDRVSQTPESLDFLKVPDQGAAGVRRQTTSRPPPAGGRPKPQPKPKPQVPQCKALYAYDAQDTDELSFNANDIIDIIKEDPSGWWTGRLRGKQGLFPNNYVTKI | soluble
MTRHLAGSFASPPGAEAEGGPVRVTALRAQAFHIPTDLPEADGTFAWNATTLVLVEVEAGGQTGIGYTYSDASIVRLIHHTLAACVIDADAWQVGALWLRMQRQVRNPGRAGLAATAISAVDCALWDLKAKLLGVPLVTLLGAQRANVPIYGSGGFTTYTDEQLREQLVRWVAQDGCRWVKMKIGTHPQEDPQRVAAARAAIGDAGLFVDANGAFSVKEALHYARAFAEQGVEWFEEPVSSDDLRGLALLRERAPARMEIAAGEYAYTLDDFRLLLEAHAVDVLQADVSRCGGVTGFLQAAALCEAFHVPLSAHCAPALHLHVASAVRNLRHQEWFHDHVRIEAMLFDGAPRPSNGAIAPDMARPGCGLAFRHGDAQRYLIH | soluble
MAIWQGASRRLSTGAKVWRAAKKHKREMGRPAAETQVSDKIKRKIVRCRGANLKVKLEKTNYANVFDQANKVCKKVVVTNVIDNKANKHYIRRNVMTKGAIIETEMGKAKVTSRPGQDGVVNAILLTELEHHHHHH | soluble
IEEGKIVFAVGGAPNEIEYWKGVIAEFEKKYPGVTVELKRQATDTEQRRLDLVNALRGKSSDPDVFLMDVAWLGQFIASGWLEPLDDYVQKDNYDLSVFFQSVINLADKQGGKLYALPVYIDAGLLYYRKDLLEKYGYSKPPETWQELVEMAQKIQSGERETNPNFWGFVWQGKQYEGLVCDFVEYVYSNGGSLGEFKDGKWVPTLNKPENVEALQFMVDLIHKYKISPPNTYTEMTEEPVRLMFQQGNAAFERNWPYAWGLHNADDSPVKGKVGVAPLPHFPGHKSAATLGGWHIGISKYSDNKALAWEFVKFVESYSVQKGFAMNLGWNPGRVDVYDDPAVVSKSPHLKELRAVFENAVPRPIVPYYPQLSEIIQKYVNSALAGKISPQEALDKAQKEAEELVKQYS | soluble
MPEQDIASLISEHRILLEEAVREVIRRYPQSLSPSENFSKHIFSSEQLKNIIDTVLAEAWQQSAMVVITLCDEKGECVLTYRMPGTSAEDIAVAGRAAEAAVSFAKENKQIIDPTLHNVIGGIDTSRGGCVVYCAGKVIGGIGISGASAEKNHLIALRAVDSLKSGSQK | not soluble
GPGSMSASGSGVAAIYGRAEEAQNAPVKLQPVPAFELYKAAREEELCSYRSLCRVLCMHSGGKLTKQQRRILEDMREELCLPTERAEAELAAAREDVLVTSVAASGVLKRRQDFFDGVTDVPLDTLSYAESAKDDNNSLYVAQTKVARTEQIVGGVHGRHAAPSKMSIREIHKNLERIGREVAATSSKLLYCTSVVDQQAYRNVLQQKREQLQAMLREVEDAPPDMSGIASVMPSEHVY | soluble
QPSLLDRLVDDEPWRRSEAPEAALLTHAGLRAAVLRDLRWLLNTVNLASSQDLAPYRHVPASSVNFGVRAMAGRRMSEIDWVDVETSIRDAIAAFEPRILESSVEVRCVSDTRTLEHHNVLSLEIRGMLWCVPHPREFLFRTDIDLE | not soluble
MGSDKIHHHHHHSAGPIHPASLDIDNGNGTNVFIAYEWVDYDYKTYTENGLALDEAWGHLYMAIVAVAGVHVTGYVHNDIDRGNFVINSDGILKLTDFGMSSSKDASCSGKALFFPPETFQPGFFQRKRDASALARVQARDLFQVGNTMLEAILGKEGEIYQAERYGLKLAMVKKKPDFKQDLKVVIQDEKKFRKSFGKIGTKKIEDKLCVDPSRQAEVVKNLARWGLQNSLSL | not soluble
MAHHHHHHMMLHTRRTVYSCICVHTHTHTHTCGCPPPTLSQKKKRSRLFMSSSSGDEYDPAEVTVHTTVASPSLSDTVVPSAAPFLRSAAGNASAATVAAAPALASLPKTAASVLPSSSSPTPPNTGNDVDGGYRLHSNIKGRIRCLTLNTAGTTLCAGSEDGQLCMWDFTVPLKSYRVQPTRVLTPFVNRISGLQPIIALTCASDDSYFVACQDGDSPVLVRASGEQLGYCAIGERGLMDVIQCKGHRAPVTCVAAHTHDAAAFFTGSQDGTVRLWNTATFKQRSVYAVKHGSGQLTDTHAVESVASLDSFHNGLGRVFASGGQDGRVQIWDSRVKYRPGGAIATVDMYAAAAPAGPDKVTEDPFMEKHVGGMMELHQKDAGASNASGSYGLAVRLGSAVKIIDLRQLSHSDGTTAPKAVLQEAATGLPHVLDTSALSIGRGGGSSTMMTCTSRVGYRHTKGGHVVQYRYADGDRLVPTLVWRAGKQDEDVLCACADISRADGCVFAGLSSGDVVVHGAFSSGAAAPQPMEAWLQTRPQREGYERAVGVKAPRAVEDDADLLRDLF | not soluble
MGSDKIHHHHHHMPFDQGGIKMKPLLQTVDLKKYFPQGKRILKAVDGISIEIKEGETLGLVGESGCGKSTLGRTILKLLRPDGGKIFFEGKDITNLNDKEMKPYRKKMQIIFQDPLGSLNPQMTVGRIIEDPLIIHKIGTKKERRKRVEELLDMVGIGREFINSFPHEFSGGQQQRIGIARALALNPKFIVCDEPVSALDVSIQAQIIDLLEEIQQKMGISYLFIAHNLAVVEHISHKVAVMYLGKIVEYGDVDKIFLNPIHPYTRALLKSVPKIPWDGQKQRFYSLKGELPSPIDLPKGCRFQTRCTEKKAICFEKEPELTEVEKNHFVSCHLVRSYRG | not soluble
